Values of other authors as cited in patent publication US7816516B2, “Conjugates of hydroxyalkyl starch and an active agent” (Fresenius Kabi Deutschland GmbH, priority 2001, dated 2010).

How the values were obtained:
[1] = isolated haemoglobin; dimers eliminated via the kidneys
[2] = in vivo

In the case of haemoglobin, the “biological half-life in the blood circulation” value [1] is listed as “approx. 1 hour”.
In the case of `CO[C@@]12[C@H](COC(N)=O)C3=C(C(=O)C(C)=C(N)C3=O)N1C[C@@H]1N[C@@H]12` [mitomycin C], the “portion of renal elimination” value [2] is given as “approximately 18%”.
